What was measured:
[1] = target: T1, β-catenin (UniProt P35222 1-781); test: anti-Flag M2 affinity purification from HEK293 extracts, LC-MS/MS and immunoblot of eluates
T1 sequence (looked up): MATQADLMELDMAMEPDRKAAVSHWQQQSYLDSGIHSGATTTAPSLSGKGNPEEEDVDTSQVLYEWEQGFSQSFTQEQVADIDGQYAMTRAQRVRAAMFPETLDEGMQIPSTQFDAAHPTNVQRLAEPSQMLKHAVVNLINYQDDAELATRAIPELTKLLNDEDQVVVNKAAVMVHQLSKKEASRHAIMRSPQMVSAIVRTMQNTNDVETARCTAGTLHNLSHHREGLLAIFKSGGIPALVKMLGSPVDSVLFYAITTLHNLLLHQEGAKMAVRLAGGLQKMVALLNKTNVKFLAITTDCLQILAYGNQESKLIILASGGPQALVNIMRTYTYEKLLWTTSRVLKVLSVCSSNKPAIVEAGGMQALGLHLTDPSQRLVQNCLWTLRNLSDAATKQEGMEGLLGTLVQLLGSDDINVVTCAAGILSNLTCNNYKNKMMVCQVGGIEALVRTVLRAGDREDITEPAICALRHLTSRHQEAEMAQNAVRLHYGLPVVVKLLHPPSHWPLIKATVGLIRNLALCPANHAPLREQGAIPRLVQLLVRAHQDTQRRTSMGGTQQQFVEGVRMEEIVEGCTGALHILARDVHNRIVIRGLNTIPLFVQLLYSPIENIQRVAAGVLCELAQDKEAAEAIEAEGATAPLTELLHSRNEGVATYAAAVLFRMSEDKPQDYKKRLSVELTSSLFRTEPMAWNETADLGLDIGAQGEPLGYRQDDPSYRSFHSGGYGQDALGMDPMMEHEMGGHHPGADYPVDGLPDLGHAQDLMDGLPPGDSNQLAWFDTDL
Procedure: FIG. 1. Purification of RORα-containing complex and identification of β-catenin as a binding partner (A) RORα-containing complex was purified from extracts obtained from HEK293 cells stably expressing Flag-tagged RORα. As a negative control, a mock purification from HEK293 cells stably expressing an empty vector was performed. The bound proteins were resolved by SDS-PAGE and prepared for LC-MS/MS analysis. […] (C) β-catenin and GRIP1 were detected from the elutes by immunoblot analysis. (D) Coimmunoprecipitation of endogenous RORα with β-catenin in HEK293 cells. (E) Ni+-NTA-agarose pulldown assay was performed with plasmids expressing each GFP-tagged β-catenin deletion construct and HisMax-RORα. (F) Illustration of the structure of various β-catenin deletion constructs and binding to RORα.
Purification of RORα-Containing Complex and Identification of β-Catenin as a Binding Partner To investigate the as-yet-unidentified functional modules of RORα, we used a Flag epitope-tag strategy to purify RORα-containing complexes. We generated cell lines that stably express Flag-tagged RORα, and incubated the extracts in anti-Flag M2 affinity gel. After washing with buffer containing increasing salt concentrations of up to 500 mM, the proteins retained on the affinity chromatography column were eluted with buffer containing Flag peptide. […]

[2] = target: T1, β-catenin; test: co-IP with anti-Flag antibody from HCT116 cells, immunoblot for β-catenin
Procedure: FIG. 4. PKCα-dependent phosphorylation of RORα is crucial for downregulation of Wnt/β-catenin target genes (A) The specificity of the antibody raised against phosphorylated RORαS35 peptide (SEQ ID NO:18) was assessed by dot blot analysis. (B) Treatment of TPA increased phophorylated RORα on S35 site as assessed by immunoprecipitation with anti-phospho-RORαS35 antibody. […] (D) Treatment of Go6976, a PKCα inhibitor, abolished TPA-dependent phosphorylation of RORα as assessed by immonoblotting with anti-phospho-RORαS35 antibody. (E) HCT116 cells were transfected with Flag-RORα WT, S35D, or S35A, and the cell extracts were immunoprecipitated with anti-Flag antibody followed by immunoblotting against anti-β-catenin antibody. (F) Coimmunoprecipitation assay of β-catenin with either RORαWT or S35A in HCT116 cells after treatment with TPA in the absence or presence of Go6976. (G) ChIP analysis on the cyclin D1 promoter after transfection with Flag-RORαWT, S35A, or S35D in HCT116 cells. (H) ChIP analysis on the cyclin D1 promoter in HCT116 cells after TPA treatment for indicated time. […] (J) Real-time quantitative RT-PCR analysis of the cyclin D1 transcript in HCT116 cells in the presence of TPA for indicated time. (K) Knockdown effect of siRNA against RORα or PKCα was assessed in the expression of the cyclin D1 transcript in HCT116 cells. […]

[3] = target: PKCη (UniProt P24723 1-683); test: in vivo coimmunoprecipitation
Chain of PKCη (P24723 whole entry): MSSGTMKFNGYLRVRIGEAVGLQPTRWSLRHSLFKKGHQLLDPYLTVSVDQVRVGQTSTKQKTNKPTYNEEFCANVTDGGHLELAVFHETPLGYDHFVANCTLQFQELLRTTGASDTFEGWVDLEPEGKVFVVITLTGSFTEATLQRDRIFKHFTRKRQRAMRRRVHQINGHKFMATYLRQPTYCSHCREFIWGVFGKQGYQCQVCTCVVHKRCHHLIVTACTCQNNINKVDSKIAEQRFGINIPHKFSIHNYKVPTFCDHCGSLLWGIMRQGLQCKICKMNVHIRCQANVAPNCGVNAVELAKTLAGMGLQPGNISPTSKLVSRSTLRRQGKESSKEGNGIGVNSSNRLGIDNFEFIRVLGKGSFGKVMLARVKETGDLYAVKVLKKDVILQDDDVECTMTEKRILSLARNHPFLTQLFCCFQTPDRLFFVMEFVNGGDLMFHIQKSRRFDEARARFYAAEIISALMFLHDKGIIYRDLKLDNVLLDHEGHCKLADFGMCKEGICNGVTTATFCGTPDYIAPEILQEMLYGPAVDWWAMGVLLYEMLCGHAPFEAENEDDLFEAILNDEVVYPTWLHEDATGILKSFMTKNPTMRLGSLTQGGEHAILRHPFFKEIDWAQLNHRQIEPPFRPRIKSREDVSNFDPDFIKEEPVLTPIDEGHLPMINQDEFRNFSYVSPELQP

[4] = target: T2, PKCε (UniProt Q02156 1-737); test: in vivo coimmunoprecipitation
T2 sequence (looked up): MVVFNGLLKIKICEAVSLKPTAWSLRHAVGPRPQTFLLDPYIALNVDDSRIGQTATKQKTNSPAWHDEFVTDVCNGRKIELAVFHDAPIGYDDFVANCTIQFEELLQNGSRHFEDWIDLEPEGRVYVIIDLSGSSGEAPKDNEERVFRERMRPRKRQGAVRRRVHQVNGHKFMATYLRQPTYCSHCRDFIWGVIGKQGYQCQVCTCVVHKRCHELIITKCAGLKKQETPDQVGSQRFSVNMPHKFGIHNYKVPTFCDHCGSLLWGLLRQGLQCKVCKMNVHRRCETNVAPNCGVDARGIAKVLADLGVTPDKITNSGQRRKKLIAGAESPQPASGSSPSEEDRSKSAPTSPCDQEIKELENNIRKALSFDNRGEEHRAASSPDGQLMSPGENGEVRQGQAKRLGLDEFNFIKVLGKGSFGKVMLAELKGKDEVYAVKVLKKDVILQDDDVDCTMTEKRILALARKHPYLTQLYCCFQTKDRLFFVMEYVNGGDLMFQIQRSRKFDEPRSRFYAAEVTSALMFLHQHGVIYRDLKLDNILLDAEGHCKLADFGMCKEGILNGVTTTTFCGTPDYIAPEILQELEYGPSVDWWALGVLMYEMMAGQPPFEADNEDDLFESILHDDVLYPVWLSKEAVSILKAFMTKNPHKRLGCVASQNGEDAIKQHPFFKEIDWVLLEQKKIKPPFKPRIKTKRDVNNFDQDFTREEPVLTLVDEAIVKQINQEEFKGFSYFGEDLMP

[5] = target: PKCβ2 (UniProt P05771-2 1-673); test: in vivo coimmunoprecipitation
Chain of PKCβ2 (P05771 other isoform, or with tags, fused parts or gaps): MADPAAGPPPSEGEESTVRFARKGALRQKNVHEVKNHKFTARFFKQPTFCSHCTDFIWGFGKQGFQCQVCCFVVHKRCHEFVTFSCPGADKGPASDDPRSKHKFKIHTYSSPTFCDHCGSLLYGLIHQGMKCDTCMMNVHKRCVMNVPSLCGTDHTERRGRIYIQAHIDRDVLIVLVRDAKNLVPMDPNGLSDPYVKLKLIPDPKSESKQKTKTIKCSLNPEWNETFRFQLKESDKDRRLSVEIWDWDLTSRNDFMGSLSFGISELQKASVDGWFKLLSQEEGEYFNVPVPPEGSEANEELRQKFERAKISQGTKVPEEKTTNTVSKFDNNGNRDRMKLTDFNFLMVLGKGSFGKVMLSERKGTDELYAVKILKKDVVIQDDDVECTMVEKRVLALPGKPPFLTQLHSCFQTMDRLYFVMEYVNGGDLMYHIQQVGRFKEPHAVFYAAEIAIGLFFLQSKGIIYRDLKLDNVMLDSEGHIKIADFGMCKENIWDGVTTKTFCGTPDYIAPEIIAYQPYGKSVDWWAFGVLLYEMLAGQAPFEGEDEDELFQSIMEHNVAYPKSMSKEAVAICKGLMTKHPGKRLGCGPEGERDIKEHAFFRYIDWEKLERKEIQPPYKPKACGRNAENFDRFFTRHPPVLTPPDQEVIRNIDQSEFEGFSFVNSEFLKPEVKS

[6] = target: PKCδ (UniProt Q05655 1-676); test: in vivo coimmunoprecipitation
Chain of PKCδ (Q05655 whole entry, stated change not applied): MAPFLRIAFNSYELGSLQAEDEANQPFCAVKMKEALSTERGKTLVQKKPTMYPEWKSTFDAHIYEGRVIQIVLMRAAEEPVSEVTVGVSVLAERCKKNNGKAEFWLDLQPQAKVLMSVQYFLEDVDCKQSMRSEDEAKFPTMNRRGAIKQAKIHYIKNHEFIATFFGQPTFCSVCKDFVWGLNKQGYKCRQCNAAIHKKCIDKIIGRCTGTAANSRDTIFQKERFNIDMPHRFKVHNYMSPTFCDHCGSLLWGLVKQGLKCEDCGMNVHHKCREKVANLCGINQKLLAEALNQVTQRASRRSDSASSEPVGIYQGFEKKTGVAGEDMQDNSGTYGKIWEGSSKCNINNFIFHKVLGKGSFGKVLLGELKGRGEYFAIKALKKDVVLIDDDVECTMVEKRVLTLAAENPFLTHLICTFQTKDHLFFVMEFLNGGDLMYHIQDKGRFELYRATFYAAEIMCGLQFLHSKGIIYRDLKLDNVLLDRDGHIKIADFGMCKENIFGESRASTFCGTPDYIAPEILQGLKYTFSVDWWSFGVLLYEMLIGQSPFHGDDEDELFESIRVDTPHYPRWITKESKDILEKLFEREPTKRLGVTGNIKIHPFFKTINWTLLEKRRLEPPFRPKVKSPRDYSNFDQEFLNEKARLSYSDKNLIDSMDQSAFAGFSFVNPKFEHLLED

B1: Flag-tagged RORα (receptor, UniProt P35398 1-523, looked up)
chain: MESAPAAPDPAASEPGSSGADAAAGSRETPLNQESARKSEPPAPVRRQSYSSTSRGISVTKKTHTSQIEIIPCKICGDKSSGIHYGVITCEGCKGFFRRSQQSNATYSCPRQKNCLIDRTSRNRCQHCRLQKCLAVGMSRDAVKFGRMSKKQRDSLYAEVQKHRMQQQQRDHQQQPGEAEPLTPTYNISANGLTELHDDLSNYIDGHTPEGSKADSAVSSFYLDIQPSPDQSGLDINGIKPEPICDYTPASGFFPYCSFTNGETSPTVSMAELEHLAQNISKSHLETCQYLREELQQITWQTFLQEEIENYQNKQREVMWQLCAIKITEAIQYVVEFAKRIDGFMELCQNDQIVLLKAGSLEVVFIRMCRAFDSQNNTVYFDGKYASPDVFKSLGCEDFISFVFEFGKSLCSMHLTEDEIALFSAFVLMSADRSWLQEKVKIEKLQQKIQLALQHVLQKNHREDGILTKLICKVSTLRALCGRHTEKLMAFKAIYPDIVRLHFPPLYKELFTSEFEPAMQIDG
notes: also called Flag-RORα; Flag-RORα WT; not shown: Flag tag
binding result [1]: binds

B2: Flag-RORα DBD mutant (C90A) (receptor, UniProt P35398 1-523, looked up)
chain: MESAPAAPDPAASEPGSSGADAAAGSRETPLNQESARKSEPPAPVRRQSYSSTSRGISVTKKTHTSQIEIIPCKICGDKSSGIHYGVITAEGCKGFFRRSQQSNATYSCPRQKNCLIDRTSRNRCQHCRLQKCLAVGMSRDAVKFGRMSKKQRDSLYAEVQKHRMQQQQRDHQQQPGEAEPLTPTYNISANGLTELHDDLSNYIDGHTPEGSKADSAVSSFYLDIQPSPDQSGLDINGIKPEPICDYTPASGFFPYCSFTNGETSPTVSMAELEHLAQNISKSHLETCQYLREELQQITWQTFLQEEIENYQNKQREVMWQLCAIKITEAIQYVVEFAKRIDGFMELCQNDQIVLLKAGSLEVVFIRMCRAFDSQNNTVYFDGKYASPDVFKSLGCEDFISFVFEFGKSLCSMHLTEDEIALFSAFVLMSADRSWLQEKVKIEKLQQKIQLALQHVLQKNHREDGILTKLICKVSTLRALCGRHTEKLMAFKAIYPDIVRLHFPPLYKELFTSEFEPAMQIDG
notes: also called RORαC90A; not shown: Flag tag
binding result [2]: binds

B3: Flag-RORα S35D (receptor, UniProt P35398 1-523, looked up)
chain: MESAPAAPDPAASEPGSSGADAAAGSRETPLNQEDARKSEPPAPVRRQSYSSTSRGISVTKKTHTSQIEIIPCKICGDKSSGIHYGVITCEGCKGFFRRSQQSNATYSCPRQKNCLIDRTSRNRCQHCRLQKCLAVGMSRDAVKFGRMSKKQRDSLYAEVQKHRMQQQQRDHQQQPGEAEPLTPTYNISANGLTELHDDLSNYIDGHTPEGSKADSAVSSFYLDIQPSPDQSGLDINGIKPEPICDYTPASGFFPYCSFTNGETSPTVSMAELEHLAQNISKSHLETCQYLREELQQITWQTFLQEEIENYQNKQREVMWQLCAIKITEAIQYVVEFAKRIDGFMELCQNDQIVLLKAGSLEVVFIRMCRAFDSQNNTVYFDGKYASPDVFKSLGCEDFISFVFEFGKSLCSMHLTEDEIALFSAFVLMSADRSWLQEKVKIEKLQQKIQLALQHVLQKNHREDGILTKLICKVSTLRALCGRHTEKLMAFKAIYPDIVRLHFPPLYKELFTSEFEPAMQIDG
notes: not shown: Flag tag
binding result [2]: binds

B4: RORα (receptor, UniProt P35398 1-523, looked up)
chain: MESAPAAPDPAASEPGSSGADAAAGSRETPLNQESARKSEPPAPVRRQSYSSTSRGISVTKKTHTSQIEIIPCKICGDKSSGIHYGVITCEGCKGFFRRSQQSNATYSCPRQKNCLIDRTSRNRCQHCRLQKCLAVGMSRDAVKFGRMSKKQRDSLYAEVQKHRMQQQQRDHQQQPGEAEPLTPTYNISANGLTELHDDLSNYIDGHTPEGSKADSAVSSFYLDIQPSPDQSGLDINGIKPEPICDYTPASGFFPYCSFTNGETSPTVSMAELEHLAQNISKSHLETCQYLREELQQITWQTFLQEEIENYQNKQREVMWQLCAIKITEAIQYVVEFAKRIDGFMELCQNDQIVLLKAGSLEVVFIRMCRAFDSQNNTVYFDGKYASPDVFKSLGCEDFISFVFEFGKSLCSMHLTEDEIALFSAFVLMSADRSWLQEKVKIEKLQQKIQLALQHVLQKNHREDGILTKLICKVSTLRALCGRHTEKLMAFKAIYPDIVRLHFPPLYKELFTSEFEPAMQIDG
notes: also called retinoic acid-related orphan nuclear receptor (ROR)α; endogenous RORα
binding result [3]: no binding
binding result [4]: no binding
binding result [5]: no binding
binding result [6]: no binding

— US8697366 (SEOUL NATIONAL UNIVERSITY INDUSTRY FOUNDATION, dated 2014)
